Results from patent US10105442B2, “Treatment of diabetes type 1 using GLP-1 and anti-IL-21” (Novo Nordisk A/S, priority 2014, dated 2018).

Key:
[1] = test system: pancreatic tissue (islets, insulitis) of NOD mice; assay: Histological examination of pancreatic tissue of NOD mice (H&E, CD8/CD4 and insulin staining); type: in vivo, mouse
Experimental: Histological examination: The histological analyses were performed on pancreatic tissue from a subset of mice from each group. Sections were stained with Hematoxylin and eosin (H&E) to assess insulitis and immunofluorescent staining with either CD8 and insulin or CD4 and insulin to assess insulitis and also characterize cell types within infiltrates.

murine IL-21 = murine IL-21 (Mus musculus, UniProt Q9ES17); assay: Inhibition of IL-21 mediated STAT-3 phosphorylation in BaF3/KZ134/hIL-21R cells (Assay III); type: cell-based; details: selected antibody clone
Experimental: Assay (III): Inhibition of IL-21 Mediated STAT-3 Phosphorylation.
The ability of anti-IL-21 antibodies to neutralize IL-21 can be measured in a cell based assay using phosphorylation of STAT3 as read-out. BaF3 cells transfected with IL-21 receptor (IL-21R) are used and as IL-21 induces STAT3 phosphorylation reduction hereof by an anti-IL-21 antibody reflects the IL-21 neutralization activity.
Reduction in murine IL-21 activity in the presence of antibody containing supernatant was determined by measuring the level of STAT3-phosphorylation following ligand-receptor interaction in BaF3/KZ134/hIL-21R cells.
Relative neutralization activity was determined based on the percentage decrease in phosphorylated-STAT3 levels relative to control cells incubated with ligand alone. Baf3/KZ134/hIL-21R cells are plated in 96-well round-bottom tissue culture plates at a density of 50,000 cells/well. Murine IL-21 was pre-incubated with the supernatant from each tested well before transfer to the plated cells. The reactions were stopped and cells lyzed according to the manufacturer's instructions, (BIO-RAD Laboratories). Supernatants were collected, mixed with assay buffer and stored. […] The level of phosphorylated-STAT3 was determined on an array reader (BIO-PLEX, BIO-RAD Laboratories) according to the manufacturer's instructions. […]

mIL-21 = molecular target: T1, mIL-21 (Mus musculus, UniProt Q9ES17); assay: Inhibition of IL-21-driven B cell proliferation (Assay IV); type: cell-based; details: mouse B cells stimulated with anti-IgM, anti-CD40 and rmIL-21, 72 h, 3H-thymidine incorporation
T1 construct: purchased
Experimental: Assay (IV): Inhibition of IL-21-Driven B Cell Proliferation.
As a functionality test, anti-mIL-21 is tested for its ability to neutralize mIL-21-driven B cell proliferation. Equivalent assays may be performed for testing of anti-hIL-21 antibodies, such as Example 10 of WO2013/164021 that utilizes PBMC's isolated from healthy human volunteers. Further information on ability to inhibit B-cell maturation may be obtained as described in Example 6 and 12 of WO2012/098113.
Mouse B cells are purified from spleens harvested from 6-8 weeks old wild-type C57BL/6 mice. Single cell splenocytes are prepared by forcing the organ through a 70 μm cell strainer into PBS. B cells were purified by anti-B220 positive selection by magnetic beads, using magnetic beads and an AutoMACS cell separator (Miltenyi Biotec) according to manufacturer's protocol.
Cells are stimulated in vitro with: a) soluble anti-IgM (1 μg/mL), b) soluble anti-CD40 (1 μg/mL) and c) mIL-21 (25, 50, 100 ng/mL). 10^5 purified B cells were added per well in a 96-well-plate and stimulated for 72 h at 37° C. with soluble IgM (1 μg/mL), soluble anti-CD40 IgM (1 μg/mL) and rmIL-21 (100 ng/mL) in the presence of an anti-IL-21 antibody or an isotype control antibody. For the last 18 h of incubation 3H-thymidine is added to each well and thymidine-incorporation (proliferation) was measured on a Top Counter liquid scintilator (Perkin Elmer)

B1: Anti-IL-21: Mouse surrogate anti-IL-21 antibody, mIgG1/kappa isotype, VL SEQ ID NO:26 and VH SEQ ID NO:27, raised against recombinant mouse IL-21 (antibody, V domains shown)
VH: MNFGPSLIFLVLILKGVQCEVQLVESGGGLVKPGGSLKLSCAASGFTFNRYSMSWVRQSPEKRLEWVAEISVGGSYTQYVDIVTGRFTISRDNAKNTLYLEMSSLRSEDTAMYYCARLYYSGSGDSYYYAMDYWGQGTSVTVSS
VL: MDFQVQIFSFLLISASVILSRGQTVLIQSPAIMSASPGEKVTMTCSASSSVSYMHWYQQKSGTSPKRWIYDTSKLASGVPARFSGSGSGTSYSLTISSMEAEDAATYYCQQWNSNPPTFGGGTKLEMK
Cellular infiltration of pancreas (in words) ([1]; subset of mice from each group): decreased extent of infiltration
Insulitis (in words) ([1]; surviving mice): reduced
Neutralizing activity in STAT3 phosphorylation assay (in words) (murine IL-21): strong neutralizing activity
Inhibition of mIL-21-driven B-cell proliferation (in words) (mIL-21): capable of inhibiting B-cell proliferation in a concentration dependent manner
